Results published in patent publication US20220356213A1 (MAX PLANCK GESELLSCHAFT ZUR F RDERUNG DER WISSENSCHAFTEN E V, published 2022).

Target: T1, TMH-FLAG-(L1)-iLID
T1 chain: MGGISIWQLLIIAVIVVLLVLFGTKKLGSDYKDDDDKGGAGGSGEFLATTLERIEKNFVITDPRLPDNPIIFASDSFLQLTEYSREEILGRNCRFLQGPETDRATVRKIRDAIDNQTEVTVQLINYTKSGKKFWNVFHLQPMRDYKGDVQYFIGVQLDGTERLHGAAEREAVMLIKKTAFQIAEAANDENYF
Assay: cell-based or functional assay

B1: SspB_Nano-SctQ (other)
chain: MSLRSGAGSSPKRPKLLREYYDWLVDNSFTPYLVVDATYLGVNVPVEYVKDGQIVLNLSASATGNLQLTNDFIQFNARFKGVSRELYIPMGAALAIYARENGDGVMFEPEEIYDELNIGGAGELGGSGGSGGSLLTLPQAKLSELSLRQRLSHYRQNYLWEEGKLELTVSEPPSSLNCILQLQWKGTHFTLYCFGDDLANWLTPDLLGAPFSTLPKELQLALLERQTVFLPKLVCNDIATASLSVTQPLLSLRLSRDNAHISFWLTSAEALFALLPARPNSERIPLPILLSLRWHKVYLTLDEVDSLRLGDVLLAPEGSGPNSPVLAYVGENPWGYFQLQSNKLEFIGMSHESDELNPKPLTDLNQLPVQVSFEVGRQILDWHTLTSLEPGSLIDLTTPVDGEVRLLANGRLLGHGRLVEIQGRLGVRIERLTEVTIS
L/D ratio of export of heterologous cargo YopE1-53-NanoLuc-FLAG, LITESEC-supp2: < 0.02 | L/D ratio of export of heterologous cargo, LITESEC-supp2: 0.01 | export of heterologous cargo, LITESEC-supp2, dark: 205 % WT secretion | export of heterologous cargo, LITESEC-supp2, light: 2 % WT secretion | light/dark secretion ratio (L/D ratio), LITESEC-supp1, native T3SS substrates, in vitro secretion assay: 0.28 | light/dark secretion ratio (L/D ratio), LITESEC-supp2 (anchor from pACYC184), native T3SS substrates: 0.26
